# Source: article PMC9352680, “A comprehensive thermodynamic model for RNA binding by the Saccharomyces cerevisiae Pumilio protein PUF4”
# T1: PUF4 RNA-binding domain (Saccharomyces cerevisiae, UniProt P25339 537-888)
# T1 sequence: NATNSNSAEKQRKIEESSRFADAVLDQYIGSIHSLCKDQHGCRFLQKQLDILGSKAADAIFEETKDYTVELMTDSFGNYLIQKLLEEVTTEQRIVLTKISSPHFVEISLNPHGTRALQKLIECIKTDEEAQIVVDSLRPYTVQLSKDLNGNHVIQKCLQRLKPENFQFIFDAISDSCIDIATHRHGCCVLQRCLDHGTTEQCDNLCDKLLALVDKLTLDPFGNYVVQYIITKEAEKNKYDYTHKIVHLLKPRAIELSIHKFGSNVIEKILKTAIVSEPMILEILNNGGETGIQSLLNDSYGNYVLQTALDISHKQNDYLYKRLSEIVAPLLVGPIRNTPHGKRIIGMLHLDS
# Target: T1, PUF4 RNA-binding domain
# Assay: Mg; RNA-MaP; 20 mM Na-HEPES pH 7.4, 30 mM KOAc, 0.75 mM MgCl2, 0.1% Tween-20, 5% glycerol, 0.1 mg/mL BSA, 2 mM DTT; 25 C; 0.0125-409.6 nM protein
# Settings: tags: N-His6-TEV cleaved; C-SNAP kept, Cy3B-labelled; label: tethered on chip by stalled RNA polymerase
row,Binder,Kd [µM]
1,Ic_S4_P4E.1_K4.1_C4.1_H4.1_A4.1_[T5C]_[A6T]_F4.1_[T8C]_[A9T]_T4.1 (ssRNA) RNA: UUUGACAACUGAUCGUUCUUUCUUGUACUUCUUUCUUUCUCGAUCAGUUGUCUUU,0.0325
2,Ic_S4_P4E.1_K4.1_C4.1_H4.1_A4.1_[T5A]_[A6C]_[T7C]_F4.1_[T8C]_[A9T]_T4.1 (ssRNA) RNA: UUUGACAACUGAUCGUUCUUUCUUGUAACCCUUUCUUUCUCGAUCAGUUGUCUUU,0.225
3,Ic_S4_P4E.1_K4.1_C4.1_H4.1_A4.1_[T5C]_[T7C]_F4.1_[T8A]_[A9G]_T4.1 (ssRNA) RNA: UUUGACAACUGAUCGUUCUUUCUUGUACACAGUUCUUUCUCGAUCAGUUGUCUUU,0.27
4,Ic_S4_P4E.1_K4.1_C4.1_H4.1_A4.1_[T5A]_[A6C]_[T7A]_F4.1_[T8G]_[A9T]_T4.1 (ssRNA) RNA: UUUGACAACUGAUCGUUCUUUCUUGUAACAGUUUCUUUCUCGAUCAGUUGUCUUU,0.604
5,Ic_S4_P4E.1_K4.1_C4.1_H4.1_A4.1_[T5C]_[T7G]_F4.1_[T8C]_[A9C]_T4.1 (ssRNA) RNA: UUUGACAACUGAUCGUUCUUUCUUGUACAGCCUUCUUUCUCGAUCAGUUGUCUUU,0.0894
6,Ic_S4_P4E.1_K4.1_C4.1_H4.1_A4.1_[T5C]_[T7C]_F4.1_[T8C]_[A9G]_T4.1 (ssRNA) RNA: UUUGACAACUGAUCGUUCUUUCUUGUACACCGUUCUUUCUCGAUCAGUUGUCUUU,0.072
7,Ic_S4_P4E.1_K4.1_C4.1_H4.1_A4.1_[T5C]_[T7C]_F4.1_[A9T]_T4.1 (ssRNA) RNA: UUUGACAACUGAUCGUUCUUUCUUGUACACUUUUCUUUCUCGAUCAGUUGUCUUU,0.00437
8,Ic_S4_P4E.1_K4.1_C4.1_H4.1_A4.1_[T5C]_F4.1_[A9G]_T4.1 (ssRNA) RNA: UUUGACAACUGAUCGUUCUUUCUUGUACAUUGUUCUUUCUCGAUCAGUUGUCUUU,0.00385
9,Ic_S4_P4E.1_K4.1_C4.1_H4.1_A4.1_[T5A]_[A6C]_[T7G]_F4.1_[A9T]_T4.1 (ssRNA) RNA: UUUGACAACUGAUCGUUCUUUCUUGUAACGUUUUCUUUCUCGAUCAGUUGUCUUU,0.0843
10,Ic_S4_P4E.1_K4.1_C4.1_H4.1_A4.1_[T5A]_[A6C]_[T7G]_F4.1_[T8G]_[A9C]_T4.1 (ssRNA) RNA: UUUGACAACUGAUCGUUCUUUCUUGUAACGGCUUCUUUCUCGAUCAGUUGUCUUU,> 2.3
11,Ic_S4_P4E.1_K4.1_C4.1_H4.1_A4.1_[T5C]_F4.1_[T8G]_[A9C]_T4.1 (ssRNA) RNA: UUUGACAACUGAUCGUUCUUUCUUGUACAUGCUUCUUUCUCGAUCAGUUGUCUUU,0.0143
12,Ic_S4_P4E.1_K4.1_C4.1_H4.1_A4.1_[T5C]_[T7A]_F4.1_[T8G]_[A9C]_T4.1 (ssRNA) RNA: UUUGACAACUGAUCGUUCUUUCUUGUACAAGCUUCUUUCUCGAUCAGUUGUCUUU,0.7
13,Ic_S4_P4E.1_K4.1_C4.1_H4.1_A4.1_[T5C]_[T7A]_F4.1_[A9C]_T4.1 (ssRNA) RNA: UUUGACAACUGAUCGUUCUUUCUUGUACAAUCUUCUUUCUCGAUCAGUUGUCUUU,0.0221
14,Ic_S4_P4E.1_K4.1_C4.1_H4.1_A4.1_[T5C]_[T7G]_F4.1_[T8C]_T4.1 (ssRNA) RNA: UUUGACAACUGAUCGUUCUUUCUUGUACAGCAUUCUUUCUCGAUCAGUUGUCUUU,0.0695
15,Ic_S4_P4E.1_K4.1_C4.1_H4.1_A4.1_[T5A]_[A6C]_[T7C]_F4.1_[T8G]_[A9C]_T4.1 (ssRNA) RNA: UUUGACAACUGAUCGUUCUUUCUUGUAACCGCUUCUUUCUCGAUCAGUUGUCUUU,0.927
16,Ic_S4_P4E.1_K4.1_C4.1_H4.1_A4.1_[T5A]_[A6C]_F4.1_[T8C]_[A9G]_T4.1 (ssRNA) RNA: UUUGACAACUGAUCGUUCUUUCUUGUAACUCGUUCUUUCUCGAUCAGUUGUCUUU,0.577
17,Ic_S4_P4E.1_K4.1_C4.1_H4.1_A4.1_[T5A]_[A6C]_[T7C]_F4.1_[A9G]_T4.1 (ssRNA) RNA: UUUGACAACUGAUCGUUCUUUCUUGUAACCUGUUCUUUCUCGAUCAGUUGUCUUU,0.0441
18,Ic_S4_P4E.1_K4.1_C4.1_H4.1_A4.1_[T5C]_[T7A]_F4.1_[T8C]_[A9T]_T4.1 (ssRNA) RNA: UUUGACAACUGAUCGUUCUUUCUUGUACAACUUUCUUUCUCGAUCAGUUGUCUUU,0.0394
19,Ic_S4_P4E.1_K4.1_C4.1_H4.1_A4.1_[T5A]_[A6C]_[T7A]_F4.1_T4.1 (ssRNA) RNA: UUUGACAACUGAUCGUUCUUUCUUGUAACAUAUUCUUUCUCGAUCAGUUGUCUUU,0.00134
20,Ic_S4_P4E.1_K4.1_C4.1_H4.1_A4.1_[T5C]_[T7C]_F4.1_[T8A]_T4.1 (ssRNA) RNA: UUUGACAACUGAUCGUUCUUUCUUGUACACAAUUCUUUCUCGAUCAGUUGUCUUU,0.0169
21,Ic_S4_P4E.1_K4.1_C4.1_H4.1_A4.1_[T5C]_F4.1_[T8A]_[A9T]_T4.1 (ssRNA) RNA: UUUGACAACUGAUCGUUCUUUCUUGUACAUAUUUCUUUCUCGAUCAGUUGUCUUU,0.00155
22,Ic_S4_P4E.1_K4.1_C4.1_H4.1_A4.1_[T5C]_F4.1_[T8C]_[A9T]_T4.1 (ssRNA) RNA: UUUGACAACUGAUCGUUCUUUCUUGUACAUCUUUCUUUCUCGAUCAGUUGUCUUU,0.0111
23,Ic_S4_P4E.1_K4.1_C4.1_H4.1_A4.1_[T5C]_[T7A]_F4.1_[T8A]_T4.1 (ssRNA) RNA: UUUGACAACUGAUCGUUCUUUCUUGUACAAAAUUCUUUCUCGAUCAGUUGUCUUU,0.0138
24,Ic_S4_P4E.1_K4.1_C4.1_H4.1_A4.1_[T5A]_[A6C]_[T7A]_F4.1_[A9C]_T4.1 (ssRNA) RNA: UUUGACAACUGAUCGUUCUUUCUUGUAACAUCUUCUUUCUCGAUCAGUUGUCUUU,0.0225
